The supplement of paper PMC11196671

How the values were obtained:
[1] = MHET released, HPLC; higher = more MHET released; extreme values may be limits of the assay; conditions: 24 h
Procedure: (§1)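 Purified PET hydrolases, 2.5 ug enzyme on 3.5 mg amorphous PET film (aFilm) or crystalline PET powder (cryPow) in 0.5 mL of 50 mM buffer (NaCitrate pH 4.5/5.5, NaPhosphate 6.5/7.5, glycine 8.5/9.5) at 60 or 70 C with shaking for 24 h. Total aromatic product by UV-Vis (260/280 nm, blank-subtracted, normalised per mg enzyme) and individual TPA, MHET, BHET concentrations by UHPLC-DAD at 240 nm; duplicate reactions.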

[2] = PET hydrolysis product formed (TPA+MHET+BHET, UV-Vis) per mg enzyme (mmol/mg enzyme); higher = more PET depolymerisation activity; extreme values may be limits of the assay; conditions: 2 h
Procedure: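 Purified PET hydrolases (His-SUMO cleaved, E. coli C41(DE3) small-scale expression), 2.5 ug enzyme on 3.5 mg amorphous PET film (aFilm) or crystalline PET powder (cryPow) in 0.5 mL of 50 mM buffer (NaCitrate pH 4.5/5.5, NaPhosphate 6.5/7.5, glycine 8.5/9.5) at 60 or 70 C with shaking for 2 h. Soluble aromatic products (TPA+MHET+BHET) were quantified by UV-Vis at 260/280 nm, blank-subtracted against the no-enzyme control, and normalised per mg enzyme; duplicate reactions.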

[3] = terephthalic acid (TPA) released, HPLC; higher = more TPA released; extreme values may be limits of the assay; conditions: 24 h
Procedure: as §1

[4] = BHET released, HPLC; higher = more BHET released; extreme values may be limits of the assay; conditions: 24 h
Procedure: as §1

SNPYQRGPNPTRSALTADGPFSVRTYTISRLSVSGFGGGVIYYPTGTSLTFGGIAMSPGYTADASSLAWLGRRLASHGFVVLVINTNSRFDGPDSRASQLSAALNYLRTSSPSAVRARLDANRLAVAGHSMGGGGTLRIAEQNPSLKAAVPLTPWHTDKTFNTSVPVLIVGAEADTVAPVSQHAIPFYQNLPSTTPKVYVELCNASHIAPNSPNAAISVYTISWMKLWVDNDTRYRQFLCNVNDPALCDFRTNNRHCQ [LCC-ICCG RIP]
Conditions | BHET released, [4] [mM] | MHET released, [1] [mM] | PET hydrolysis product formed, [2] | terephthalic acid, [3] [mM]
PET substrate: aFilm, 60 °C, pH 4.5 | 0.00297 | 0.0627 | 0 | 0.0858
PET substrate: aFilm, 60 °C, pH 5.5 | 0.00225 | 0.19 | 0.0147 | 0.202
PET substrate: aFilm, 60 °C, pH 6.5 | 0 | 0.477 | 0.0276 | 0.423
PET substrate: aFilm, 60 °C, pH 7.5 | 0.0189 | 1.93 | 0.0697 | 1.96
PET substrate: aFilm, 60 °C, pH 8.5 | 0.00205 | 0.309 | 0.0326 | 0.346
PET substrate: aFilm, 60 °C, pH 9.5 | 0.0202 | 1.34 | 0.0672 | 1.27
PET substrate: aFilm, 70 °C, pH 4.5 | 0 | 0.00485 | 0 | 0.00741
PET substrate: aFilm, 70 °C, pH 5.5 | 0.00382 | 0.23 | 0.0525 | 0.255
PET substrate: aFilm, 70 °C, pH 6.5 | 0 | 0.352 | 0.0606 | 0.361
PET substrate: aFilm, 70 °C, pH 7.5 | 0.0465 | 2.36 | 0.151 | 1.63
PET substrate: aFilm, 70 °C, pH 8.5 | 0 | 0.217 | 0.0612 | 0.2235
PET substrate: aFilm, 70 °C, pH 9.5 | 0 | 0.896 | 0.175 | 1.66
PET substrate: cryPow, 60 °C, pH 4.5 | 0.00464 | 0.0685 | 0.011 | 0.0388
PET substrate: cryPow, 60 °C, pH 5.5 | 0 | 0.1986 | 0.0235 | 0.0956
PET substrate: cryPow, 60 °C, pH 6.5 | 0 | 0.257 | 0.0304 | 0.113
PET substrate: cryPow, 60 °C, pH 7.5 | 0 | 0.292 | 0.0711 | 0.147
PET substrate: cryPow, 60 °C, pH 8.5 | 0 | 0.186 | 0.0405 | 0.121
PET substrate: cryPow, 60 °C, pH 9.5 | 0 | 0.0905 | 0.0143 | 0.307
PET substrate: cryPow, 70 °C, pH 4.5 | 0 | 0.0111 | 0 | 0.00368
PET substrate: cryPow, 70 °C, pH 5.5 | 0.00217 | 0.10965 | 0.0166 | 0.057
PET substrate: cryPow, 70 °C, pH 6.5 | 0 | 0.2013 | 0.0257 | 0.0917
PET substrate: cryPow, 70 °C, pH 7.5 | 0 | 0.367 | 0.045 | 0.322
PET substrate: cryPow, 70 °C, pH 8.5 | 0 | 0.164 | 0.0206 | 0.118
PET substrate: cryPow, 70 °C, pH 9.5 | 0 | 0.0678 | 0.0257 | 0.4635

SNPYQRGPNPTRSALTATGPFSVATYTVSRLLVSGFGGGVIYYPTGTSLTFGGIAMSPGYTADASSLAWLGRRLASHGFVVLVINTNSRFDGPDSRARQLSAALNYLRTSSPSAVRARLDANRLAVAGHSMGGGGTLRIAEQNPSLKAAVPLTPWHPDKTFNTSVPVLIVGAQADTVAPVSQHAIPFYQNLPSTTPKVYVELCNASHIAPNSPNAAISVYTISWMKLWVDNDTRYRQFLCNVNDPALCDFRTNNRHCQ [LCC-ICCG I6M]
Conditions | BHET released, [4] [mM] | MHET released, [1] [mM] | PET hydrolysis product formed, [2] | terephthalic acid, [3] [mM]
PET substrate: aFilm, 60 °C, pH 4.5 | 0 | 0.067 | 0 | 0.104
PET substrate: aFilm, 60 °C, pH 5.5 | 0.00212 | 0.339 | 0.0198 | 0.39
PET substrate: aFilm, 60 °C, pH 6.5 | 0 | 0.534 | 0.0378 | 0.499
PET substrate: aFilm, 60 °C, pH 7.5 | 0.0371 | 3.6 | 0.0723 | 2.85
PET substrate: aFilm, 60 °C, pH 8.5 | 0.00219 | 0.333 | 0.0336 | 0.541
PET substrate: aFilm, 60 °C, pH 9.5 | 0 | 1.14 | 0.0585 | 1.37
PET substrate: aFilm, 70 °C, pH 4.5 | 0 | 0 | 0 | 0
PET substrate: aFilm, 70 °C, pH 5.5 | 0.00615 | 0.236 | 0.0242 | 0.275
PET substrate: aFilm, 70 °C, pH 6.5 | 0 | 0.211 | 0.057 | 0.246
PET substrate: aFilm, 70 °C, pH 7.5 | 0 | 1.51 | 0.149 | 1.37
PET substrate: aFilm, 70 °C, pH 8.5 | 0 | 0.164 | 0.021 | 0.209
PET substrate: aFilm, 70 °C, pH 9.5 | 0 | 0.409 | 0.0849 | 1.33
PET substrate: cryPow, 60 °C, pH 4.5 | 0.00411 | 0.0591 | 0.0118 | 0.0328
PET substrate: cryPow, 60 °C, pH 5.5 | 0 | 0.178 | 0.031 | 0.102
PET substrate: cryPow, 60 °C, pH 6.5 | 0 | 0.22 | 0.0457 | 0.105
PET substrate: cryPow, 60 °C, pH 7.5 | 0 | 0.206 | 0.035 | 0.116
PET substrate: cryPow, 60 °C, pH 8.5 | 0 | 0.113 | 0.0317 | 0.0874
PET substrate: cryPow, 60 °C, pH 9.5 | 0 | 0.0594 | 0.0174 | 0.263
PET substrate: cryPow, 70 °C, pH 4.5 | 0 | 0 | 0 | 0
PET substrate: cryPow, 70 °C, pH 5.5 | 0 | 0.0931 | 0.0164 | 0.0482
PET substrate: cryPow, 70 °C, pH 6.5 | 0 | 0.136 | 0.0289 | 0.0691
PET substrate: cryPow, 70 °C, pH 7.5 | 0 | 0.275 | 0.0329 | 0.288
PET substrate: cryPow, 70 °C, pH 8.5 | 0 | 0.13 | 0.0203 | 0.1
PET substrate: cryPow, 70 °C, pH 9.5 | 0 | 0.0223 | 0.0239 | 0.25
